Measured values published in the supplement of paper PMC12764529.
± gives the half width of the 95% confidence interval.

Assays:
[1] = folding stability dG unfold from chymotrypsin proteolysis; higher = more stable
Description: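 Folding stability of de novo designed mini-proteins (<80 aa, no Cys; designed by TrROS, TrMRF, ProteinMPNN and the joint model) was measured by cDNA display proteolysis with trypsin and chymotrypsin. Each protease was used at 11 concentrations in a threefold dilution series plus a no-protease condition. K50 was inferred by Bayesian fitting of sequencing counts, and dG unfold was derived against a sequence-predicted unfolded-state K50 (Tsuboyama et al. method). Sequences shown include variable-length N-terminal GS-type padding (SAGGSAGG...) inside a display construct carrying a PA tag. Rows were kept only if the AF2 dimer inter-PAE was >15, to exclude likely homo-oligomers.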

[2] = folding stability dG unfold (combined trypsin and chymotrypsin); higher = more stable
Method in brief: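 Designed mini-proteins with no cysteine and under 80 residues were kept only if AlphaFold2 dimer inter-PAE was above 15. In a PA-tagged cDNA display construct, they were digested with trypsin and chymotrypsin and then sequenced. K50 was inferred by Bayesian fitting of counts, and unfolding free energy was derived per protease or combined against a sequence-predicted unfolded-state K50 and a shared folded-state K50.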

Sequence	folding stability dG unfold [1]	folding stability dG unfold [2]
SAGGSAGGSAGGMSTVVEESFYPEERVLRRTTTTVEEEGVTTEPSVYTVEPGDPNVLTPASAGGSAGGSAGG [r7_866_JUSTAS]	0.0822 ± 0.22 kcal/mol	-0.434 ± 0.25 kcal/mol
SAGGSAGGSLRPDEEVVAILPNGEKVPFKVESVEVSPDGSVKANLTLPGGKSLGPANLVFKPESAGGSAGGS [r12_735_TrMRF]	-0.00357 ± 0.078 kcal/mol	-0.629 ± 0.22 kcal/mol
SAGGSMLVTVKFKTLPDGTVDHNPKLLAKVDGPEPDPADPATVRLPVDPAVVAQWPEEVAEEMEILASAGGS [r16_328_JUSTAS]	0.155 ± 0.086 kcal/mol	-0.159 ± 0.074 kcal/mol
SAGGSAMKAKVVDTSLKESKTKDDSIIVTVTVKYPDGSVTPIVYPVSSSGGISEEEVEKAIKELLESAGGSA [r15_233_JUSTAS]	-0.138 ± 0.057 kcal/mol	-0.661 ± 0.14 kcal/mol
SAGGSAGGSAGGSSARVPFPATGAVLEVRVTPDGRPRVRVFNPATGEVVEFPPGAEVGVSAGGSAGGSAGGS [r4_158_TrMRF]	0.762 ± 0.036 kcal/mol	0.0259 ± 0.13 kcal/mol
SAGGSAGGSAGGSWRVRIDLPNGKSRTIPIKPGEEVDLNEIADELSDKYNIKSISIEEPSAGGSAGGSAGGS [r4_116_TrROS]	0.42 ± 0.14 kcal/mol	-0.158 ± 0.29 kcal/mol
SAGGSAGGSAGEAAIEAAIAANSPDKDATVALPGGETVRLKFTRDPKVPTLLSLDVEREPPRSAGGSAGGSA [r18_202_JUSTAS]	-0.61 ± 0.29 kcal/mol	< -1 kcal/mol
MDIPIKELLKKAAENGVRIVFPNGAETLSIFPDGEAVVRFPVELPDRPGIPVEEVERVIKIKEDGSLEVEGS [r1_284_TrMRF]	-1.08 ± 0.65 kcal/mol	< -1 kcal/mol
SAGGSALTPAVAERLRELFPDGDLGLKAVKPGEVVVFPNGARNFNTEDAERVVVVLPDGEPLVLDVSAGGSA [r2_166_TrMRF]	0.117 ± 0.14 kcal/mol	-0.241 ± 0.23 kcal/mol
SAGGSAGGSAGAWTDPDGNPYEVKEATVASLGPENPIVLVRFSENGELRLVPLEQALADLSAGGSAGGSAGG [r17_517_TrMRF]	0.558 ± 0.16 kcal/mol	-0.0575 ± 0.25 kcal/mol
SMVIPSSLGFEPALERVRALLPPERRYVVTELDPATGETTTATYDPATGTVTTTATPSAAGPPYVVVEVVSA [r9_1059_JUSTAS]	0.345 ± 0.064 kcal/mol	-0.251 ± 0.086 kcal/mol
SAGGSAGGSAGMEVIINDPEKAKNIPVNSKVKLPNGKEYKVKKVEYNPEIGYVKFIVSPESAGGSAGGSAGG [r11_316_TrMRF]	-0.489 ± 0.37 kcal/mol	-0.588 ± 0.34 kcal/mol
SAGGSAGGSAGGSKVYVLVPVPNPEAIWEKVKALGPDAKVNSVEFLPGEGYLRVEVDAPSAGGSAGGSAGGS [r10_23_TrMRF]	-0.318 ± 0.49 kcal/mol	< -1 kcal/mol
SAGGSAGGSAWRTIEITWPPSNPEEFIDEISKDFGFTVEGEREPNGYHTIDFQLPPGMKIVSAGGSAGGSAG [r3_457_TrROS]	-0.137 ± 0.23 kcal/mol	-0.224 ± 0.2 kcal/mol
SPPVLYEITITFTYSDGTTVTKTINATVPRSQIDALIQKIIEEPGNKPYTKVTFNIYDKSTGTWTTITIDSA [r9_97_JUSTAS]	5.76 ± 0.18 kcal/mol	5.66 ± 0.23 kcal/mol
SAGGSAGMVVEPREVVIKLKPPNGPETTLEVELVEVEPDSLVLRNGDTPIVLPPDAEDVEILEVTGSAGGSA [r15_510_JUSTAS]	0.401 ± 0.088 kcal/mol	0.0501 ± 0.22 kcal/mol
SAGGSAGGGMTGATPTPRTVPLPGDRTATVYERPETGELLVELPGRRLRVSPAALAAGEVALEASAGGSAGG [r6_940_JUSTAS]	0.113 ± 0.22 kcal/mol	< -1 kcal/mol
SAGGSAGSVPSIVIESYDPEKGIVTVSYPATGATYTVEVPPGSTSLTVTVTDADGTPRTFTFPLPGSAGGSA [r2_132_JUSTAS]	5.31 ± 0.1 kcal/mol	5.36 ± 0.12 kcal/mol
SAGGSAKRVAFIGGGPEIEKVIKEAEKNGFEAVPFDGTPDEFLDALKKNFPDVKQIVFPDGKVLDASAGGSA [r15_712_TrMRF]	0.192 ± 0.13 kcal/mol	-0.134 ± 0.13 kcal/mol
SAGGSAGGSAGGTIKKVSDGTIVIPVPNPHQAEKFADTLMEKNNGRDVKIKVFPPEDFGPSAGGSAGGSAGG [r7_645_TrROS]	-0.264 ± 0.1 kcal/mol	< -1 kcal/mol
SAGGENVIIRYKDPDRFKEAIQDAPGIPPENVKTKPNPNGWNEVTFPNPEALDRLKKAGYPVDKIEPSAGGS [r16_381_TrROS]	-0.351 ± 0.38 kcal/mol	< -1 kcal/mol
SAGGSAMVVPVASEEEARAVAEEAAARGEPVVIAFPGGRALVVETAAAPTPEPVLRVEEREVPPLLSAGGSA [r15_761_JUSTAS]	0.744 ± 0.0083 kcal/mol	0.216 ± 0.034 kcal/mol
SAGGPEKKILVARDSSDPNLPLEKIKEELEKKGFPPAEVTSAATEPLEKAREKAEKEGNPLIVLPVESAGGS [r16_94_JUSTAS]	-0.927 ± 0.32 kcal/mol	< -1 kcal/mol
SAMTTTTTTTDPASGRTVVTTTTPLPDGSVVTTEVDLSNPVRTTTTHPLTDGTPAPTTTTTALPADATLSAG [r14_64_JUSTAS]	0.0551 ± 0.046 kcal/mol	-0.345 ± 0.12 kcal/mol
